Laboratory results from patent publication US20030108554A1 (published 2003).
Substitutions are numbered along the chain they refer to.

How the values were obtained:
Test in all cases: yeast two-hybrid
yeast two-hybrid = target: the molecule itself
GIP130b = target: T1, GIP130b (human, UniProt Q4L180 1-1128)
T1 construct: Full length; tested as GAL4 domain fusion in yeast two-hybrid
T1 sequence: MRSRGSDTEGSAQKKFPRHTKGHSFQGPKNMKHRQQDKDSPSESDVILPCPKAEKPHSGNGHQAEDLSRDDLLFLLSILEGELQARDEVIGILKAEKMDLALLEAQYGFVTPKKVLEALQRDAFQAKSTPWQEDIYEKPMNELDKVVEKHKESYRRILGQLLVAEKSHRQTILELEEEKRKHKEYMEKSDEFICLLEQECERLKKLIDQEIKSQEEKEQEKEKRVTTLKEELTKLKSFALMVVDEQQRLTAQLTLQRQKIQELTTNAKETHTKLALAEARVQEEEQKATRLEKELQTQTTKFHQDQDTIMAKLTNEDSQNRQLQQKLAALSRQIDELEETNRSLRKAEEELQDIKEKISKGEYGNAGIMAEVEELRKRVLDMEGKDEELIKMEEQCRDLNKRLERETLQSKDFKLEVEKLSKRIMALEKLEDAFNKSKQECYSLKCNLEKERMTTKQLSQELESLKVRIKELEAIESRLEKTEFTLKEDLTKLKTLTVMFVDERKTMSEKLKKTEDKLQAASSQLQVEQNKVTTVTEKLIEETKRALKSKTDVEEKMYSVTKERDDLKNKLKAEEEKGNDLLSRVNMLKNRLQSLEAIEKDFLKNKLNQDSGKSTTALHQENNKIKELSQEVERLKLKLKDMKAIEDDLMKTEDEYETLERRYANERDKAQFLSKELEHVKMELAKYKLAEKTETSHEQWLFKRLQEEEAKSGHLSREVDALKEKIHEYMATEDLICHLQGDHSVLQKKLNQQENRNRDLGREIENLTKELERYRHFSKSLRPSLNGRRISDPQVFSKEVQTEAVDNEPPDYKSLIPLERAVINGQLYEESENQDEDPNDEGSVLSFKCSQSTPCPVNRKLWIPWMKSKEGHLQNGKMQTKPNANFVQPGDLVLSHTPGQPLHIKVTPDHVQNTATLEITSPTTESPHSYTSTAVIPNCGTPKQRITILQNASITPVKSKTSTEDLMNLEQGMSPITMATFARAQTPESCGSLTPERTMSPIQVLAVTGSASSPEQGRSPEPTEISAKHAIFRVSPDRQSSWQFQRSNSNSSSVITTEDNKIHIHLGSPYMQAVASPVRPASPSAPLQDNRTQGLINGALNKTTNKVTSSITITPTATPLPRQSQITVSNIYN

GIP130a = target: T2, GIP130a (human, UniProt Q4L180 1-1135)
T2 construct: Full length; tested as GAL4 domain fusion in yeast two-hybrid
T2 sequence: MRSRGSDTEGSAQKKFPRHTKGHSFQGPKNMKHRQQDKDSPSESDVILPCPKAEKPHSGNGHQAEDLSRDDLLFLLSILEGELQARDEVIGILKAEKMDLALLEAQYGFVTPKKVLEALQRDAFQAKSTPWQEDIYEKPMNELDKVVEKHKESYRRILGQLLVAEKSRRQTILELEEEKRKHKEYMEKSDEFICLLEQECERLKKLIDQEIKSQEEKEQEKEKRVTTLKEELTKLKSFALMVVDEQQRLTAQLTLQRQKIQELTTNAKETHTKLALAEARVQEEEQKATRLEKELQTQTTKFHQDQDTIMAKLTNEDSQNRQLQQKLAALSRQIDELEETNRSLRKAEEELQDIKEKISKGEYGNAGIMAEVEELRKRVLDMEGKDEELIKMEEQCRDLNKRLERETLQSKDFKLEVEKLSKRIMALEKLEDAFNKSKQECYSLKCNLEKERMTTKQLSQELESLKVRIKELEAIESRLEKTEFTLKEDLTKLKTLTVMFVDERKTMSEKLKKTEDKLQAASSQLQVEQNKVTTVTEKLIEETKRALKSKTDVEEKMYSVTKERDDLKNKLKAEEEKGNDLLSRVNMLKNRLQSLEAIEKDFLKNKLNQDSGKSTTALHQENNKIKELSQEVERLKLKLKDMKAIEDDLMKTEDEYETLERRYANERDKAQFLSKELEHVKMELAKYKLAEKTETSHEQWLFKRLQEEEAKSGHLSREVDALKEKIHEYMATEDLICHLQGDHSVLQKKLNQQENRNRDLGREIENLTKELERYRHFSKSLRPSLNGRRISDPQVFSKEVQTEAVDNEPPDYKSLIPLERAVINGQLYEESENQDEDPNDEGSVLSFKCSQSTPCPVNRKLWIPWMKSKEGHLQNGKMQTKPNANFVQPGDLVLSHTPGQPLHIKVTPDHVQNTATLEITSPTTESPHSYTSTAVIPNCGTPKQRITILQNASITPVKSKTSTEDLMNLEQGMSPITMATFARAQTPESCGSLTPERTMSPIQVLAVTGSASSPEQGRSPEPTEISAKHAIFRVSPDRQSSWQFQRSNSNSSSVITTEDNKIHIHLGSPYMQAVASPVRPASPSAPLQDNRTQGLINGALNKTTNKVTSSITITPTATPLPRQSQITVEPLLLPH

GIP130c = target: T3, GIP130c (human, UniProt Q4L180 1-1128)
T3 construct: Full length; tested as GAL4 domain fusion in yeast two-hybrid
T3 sequence: T1 sequence with H168R

Measured: binding result

B1: GIP90 (GPBP interacting protein 90 kDa) (other)
chain: MRSRGSDTEGSAQKKFPRHTKGHSFQGPKNMKHRQQDKDSPSESDVILPCPKAEKPHSGNGHQAEDLSRDDLLFLLSILEGELQARDEVIGILKAEKMDLALLEAQYGFVTPKKVLEALQRDAFQAKSTPWQEDIYEKPMNELDKVVEKHKESYRRILGQLLVAEKSRRQTILELEEEKRKHKEYMEKSDEFICLLEQECERLKKLIDQEIKSQEEKEQEKEKRVTTLKEELTKLKSFALMVVDEQQRLTAQLTLQRQKIQELTTNAKETHTKLALAEARVQEEEQKATRLEKELQTQTTKFHQDQDTIMAKLTNEDSQNRQLQQKLAALSRQIDELEETNRSLRKAEEELQDIKEKISKGEYGNAGIMAEVEELRKRVLDMEGKDEELIKMEEQCRDLNKRLERETLQSKDFKLEVEKLSKRIMALEKLEDAFNKSKQECYSLKCNLEKERMTTKQLSQELESLKVRIKELEAIESRLEKTEFTLKEDLTKLKTLTVMFVDERKTMSEKLKKTEDKLQAASSQLQVEQNKVTTVTEKLIEETKRALKSKTDVEEKMYSVTKERDDLKNKLKAEEEKGNDLLSRVNMLKNRLQSLEAIEKDFLKNKLNQDSGKSTTALHQENNKIKELSQEVERLKLKLKDMKAIEDDLMKTEDEYETLERRYANERDKAQFLSKELEHVKMELAKYKLAEKTETSHEQWLFKRLQEEEAKSGHLSREVDALKEKIHEYMATEDLICHLQGDHSVLQKKTKSTRKQEQRFRKRD
notes: Full length; tested as GAL4 domain fusion in yeast two-hybrid/three-hybrid; fusion parts are not written as pieces
binds: yeast two-hybrid | GIP130b | GIP130a | GIP130c
